Test results published in patent US20060148030A1, “Nuclear receptor err y 3” (FUJISAWA PHARMACEUTICAL CO., LTD, priority 2002, published 2006).

B1: ERRγ3: novel ERRγ isoform, nuclear receptor protein of 396 amino acids (SEQ ID NO: 2) lacking part of the DNA binding domain (protein, listed as Homo sapiens)
chain: MSNKDRHIDSSCSSFIKTEPSSPASLTDSVNHHSPGGSSDASGSYSSTMNGHQNGLDSPPLYPSAPILGGSGPVRKLYDDCSSTIVEDPQTKCEYMLNSMPKRLCLVCGDIASGYHYGVASCEACKAFFKRTIQGVRLDRVRGGRQKYKRRIDAENSPYLNPQLAQPAKKPYNKIVSHLLVAEPEKIYAMPDPTVPDSDIKALTTLCDLADRELVVIIGWAKHIPGFSTLSLADQMSLLQSAWMEILILGVVYRSLSFEDELVYADDYIMDEDQSKLAGLLDLNNAILQLVKKYKSMKLEKEEFVTLKAIALANSDSMHIEDVEAVQKLQDVLHEALQDYEAGQHMEDPRRAGKMLMTLPLLRQTSTKAVQHFYNIKLEGKVPMHKLFLEMLEAKV

Legend:
[1] = biological target: T1, ERα (Homo sapiens, UniProt P03372); experiment: Reporter gene assay, ERRγ3 or ERRγ2 coexisted with ERα in CV-1 cells; format: cell-based; details: for enhancement of the transcriptional activation function of ERα: absence of 4-hydroxytamoxifen
T1 construct: expressed in transfected cells; host or cells: CV-1 (African green monkey kidney)
T1 sequence (P03372 1-595): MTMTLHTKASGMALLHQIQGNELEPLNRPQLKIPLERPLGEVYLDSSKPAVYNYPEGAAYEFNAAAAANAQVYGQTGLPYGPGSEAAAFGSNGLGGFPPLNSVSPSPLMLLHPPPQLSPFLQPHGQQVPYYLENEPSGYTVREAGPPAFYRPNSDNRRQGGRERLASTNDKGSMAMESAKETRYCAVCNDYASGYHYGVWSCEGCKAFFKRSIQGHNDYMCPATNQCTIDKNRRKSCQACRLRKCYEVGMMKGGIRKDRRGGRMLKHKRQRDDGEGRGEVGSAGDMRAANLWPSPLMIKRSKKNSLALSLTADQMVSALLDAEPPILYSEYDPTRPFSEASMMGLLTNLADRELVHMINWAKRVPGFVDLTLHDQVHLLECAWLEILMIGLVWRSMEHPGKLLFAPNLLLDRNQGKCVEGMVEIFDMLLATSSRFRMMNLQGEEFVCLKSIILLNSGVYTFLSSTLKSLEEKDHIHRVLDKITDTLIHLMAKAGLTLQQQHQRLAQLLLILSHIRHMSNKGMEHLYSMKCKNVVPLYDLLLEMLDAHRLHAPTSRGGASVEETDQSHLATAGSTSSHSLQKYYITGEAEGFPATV
Protocol: The reporter gene assay was performed using CV-1 cells (African green monkey kidney-derived cell line) as hosts. Host cells were transfected with luciferase reporter plasmids and expression plasmids for ERRγ3, ERRγ2, or both. They were then exposed to 4-hydroxytamoxifen at different concentrations (0, 10^−10 to −10^−5 M) for 24 hours, whereupon luciferase activity within the cells was measured.
Transfection was performed as follows: CV-1 cells were suspended at 2×10^5 cells/2.5 ml in DMEM medium supplemented with 10% fetal bovine serum, 2000 U/l of penicillin G, and 100 mg/l streptomycin. These cells were seeded to a 6-well plate at 2.5 ml/well, and cultured for 18 to 24 hours in a CO2 incubator at 37° C. in the presence of 5% CO2. 1 μg of each of the transcription factor expression plasmid, the luciferase reporter plasmid, and another luciferase reporter plasmid for normalizing the measured value (pRL-TK), were dissolved in Opti-MEM (Gibco BRL) to total of 150 μl. 7 μl of the cell transfection reagent LipofectAMINE 2000 (Gibco BRL) was diluted in 143 μl of Opti-MEM, and this was added to the mixture drop by drop while stirring. The mixture was incubated for 20 minutes.
The LipofectAMINE-DNA mixture was diluted in 1.5 ml of Opti-MEM, and added to cells that had been twice washed with 1 ml of PBS(−). The cells were cultured for four hours. The transfection reagent was removed from the culture, and 200 μl of trypsin/EDTA was added to the cells, which were then incubated at 37° C. for five minutes. […] of DMEM was added to suspend the cells, which were transferred to a centrifuge tube, and centrifuged for three minutes at 1000 rpm. After centrifugation, the cells were resuspended in DMEM to a concentration of 1.6×10^4 cells/100 μl, and 100 μl samples were seeded to a 96-well plate. When evaluating agents, a two-fold concentrated solution was made by pre-diluting a 1000 times concentrated agent DMSO solution with culture medium. 50 μl of the solution was mixed with 50 μl of a cell suspension at 1.6×10^4 cells/50 μl, and the culture was incubated in a CO2 incubator at 37° C. and 5% CO2 for 24 hours.
Luciferase activity was measured using the Dual-Luciferase™ Reporter Assay System (Promega). The culture supernatant was removed from each well of the 96-well plate and washed once with 100 μl of PBS(−). 20 μl of ×1 PLB (Passive Lysis Buffer) was added, and the mixture was incubated at room temperature for 15 minutes, and then stored at −20° C. in the freezer until use. […] The protocol for measurement was as follows: 50 μl of Luciferase Assay Reagent II was added to each well, stirred for 0.3 seconds and measured for one second. […] of Stop&Glo™ Reagent was then added, stirred for 0.3 seconds, and measured for one second. […] Average values and standard errors were calculated from triplicate samples.
To confirm whether or not ERRγ3 can regulate the transcription-controlling function of nuclear receptors other than ERRγ2, ERRγ3's function of regulating the transcription-controlling activity of nuclear receptors related to ERRγ (ERα, ERβ, and TR) was evaluated using a reporter gene assay. […] In addition to 4-hydroxytamoxifen, the cells were also contacted with 10^−5 M of (R)-estradiol in experiments related to ERα and ERβ, and 10^−5 M of thyroxine in the experiment related to TR.
The transfected cells were contacted with varying concentrations of 4-hydroxytamoxifen in the absence of […] or presence of 10^−7 M of β-estradiol.

[2] = biological target: T2, TR (Homo sapiens, UniProt P10827); experiment: Reporter gene assay, ERRγ3 coexisted with TR in CV-1 cells; format: cell-based
T2 construct: expressed in transfected cells; host or cells: CV-1 (African green monkey kidney)
T2 sequence (P10827 1-410 isoform P10827-2): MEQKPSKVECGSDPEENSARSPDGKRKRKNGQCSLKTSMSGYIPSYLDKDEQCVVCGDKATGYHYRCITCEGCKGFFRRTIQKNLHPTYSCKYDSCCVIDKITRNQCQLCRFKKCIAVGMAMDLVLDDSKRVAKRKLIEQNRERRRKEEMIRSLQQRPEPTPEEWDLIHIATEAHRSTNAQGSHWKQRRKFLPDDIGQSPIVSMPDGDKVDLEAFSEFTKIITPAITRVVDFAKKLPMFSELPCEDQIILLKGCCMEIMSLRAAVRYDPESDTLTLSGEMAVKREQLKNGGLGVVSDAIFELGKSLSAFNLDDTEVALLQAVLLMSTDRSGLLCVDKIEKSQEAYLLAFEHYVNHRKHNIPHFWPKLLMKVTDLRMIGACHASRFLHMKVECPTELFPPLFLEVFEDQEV

Molecule | effect of 4-hydroxytamoxifen on the function of ERRγ3 on ERα ([1]; in the presence of the ligand, 10^−5 M (R)-estradiol, CV-1 cells) | effect of 4-hydroxytamoxifen on the transcription enhancing function of ERRγ3 on ERα ([1]; β-estradiol absent or 10^−7 M, 4-hydroxytamoxifen at high concentrations, FIGS. 19-20) | effect of 4-hydroxytamoxifen on the enhancing function of ERRγ3 on TR ([2]; 10^−5 M thyroxine present) | function enhancement of the transcription-controlling activity of ERα ([1]; ERRγ3 with ERα, 10^−5 M (R)-estradiol, CV-1 cells, FIG. 16) | enhancement of the transcriptional activation function of ERα ([1]; absence of β-estradiol, FIG. 19) [%] | enhancement of the transcriptional activation function of ERα ([1]; presence of 10^−7 M β-estradiol, FIG. 20) [%] | function enhancement of the transcription-controlling activity of TR ([2]; ERRγ3 with TR, 10^−5 M thyroxine, FIG. 18)
4-hydroxytamoxifen [reference compound] | increased dependent on the concentration of 4-hydroxytamoxifen | reduced in the presence of 4-hydroxytamoxifen at high concentrations | no function-enhancing effect | – | – | – | –
B1 | – | – | – | 13-74% | 64 | 18 | 128-229%
